Measured values published in PMC7721705 (2020).

Legend:
CXCL12 (SDF1α) [1] = biological target: T1, CXCL12 (SDF1α) (UniProt P48061-2 22-89); assay: SPR; low-activity fraction (KD1, heterogeneous ligand model)
CXCL12 (SDF1α) [2] = biological target: T1, CXCL12 (SDF1α); assay: SPR; high-activity fraction (kd2)
CXCL12 (SDF1α) [3] = biological target: T1, CXCL12 (SDF1α); assay: SPR; high-activity fraction (KD2, heterogeneous ligand model)
CXCL12 (SDF1α) [4] = biological target: T1, CXCL12 (SDF1α); assay: SPR; low-activity fraction (kd1)

T1 sequence (P48061 22-89): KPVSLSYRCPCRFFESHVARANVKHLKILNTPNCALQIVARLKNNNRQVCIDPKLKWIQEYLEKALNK

Kd (CXCL12 (SDF1α) [1])	koff (CXCL12 (SDF1α) [2])	Kd (CXCL12 (SDF1α) [3])	koff (CXCL12 (SDF1α) [4])	Binder
1660 nM	0.00171 s⁻¹	29 nM	0.0356 s⁻¹	CXCR4^QTY29 with C-terminal GSSG linker and rho1D4 tag (receptor) MEGISIYTSDNYTEEMGSGDYDSMKEPCFREENANYNKTFLPTIYSIIYQTGTVGNGLVILVMGYQKKLRSMTDKYRLHLSTADLQFVTTLPYWATDATANWYFGNFLCKAVHVIYTVNLYSSVLILAFISLDRYLAIVHATNSQRPRKLLAEKVVYVGVWTPAQLLTTPDYTFANVSEADDRYICDRFYPNDLWVVVFQFQHIMVGLILPGIVILSCYCIIISKLSHSKGHQKRKALKTTTTLIQAFFACWQPYYTGISIDSYILLEIIKQGCEFENTVHKWISTTEAQAFYHCCTNPTQYAYLGAKFKTSAQHALTSVSRGSSLKILSKGKRGGHSSVSTESESSSFHSS
437 nM	0.00159 s⁻¹	56.3 nM	0.0375 s⁻¹	native CXCR4 with C-terminal GSSG linker and rho1D4 tag (receptor) MEGISIYTSDNYTEEMGSGDYDSMKEPCFREENANFNKIFLPTIYSIIFLTGIVGNGLVILVMGYQKKLRSMTDKYRLHLSVADLLFVITLPFWAVDAVANWYFGNFLCKAVHVIYTVNLYSSVLILAFISLDRYLAIVHATNSQRPRKLLAEKVVYVGVWIPALLLTIPDFIFANVSEADDRYICDRFYPNDLWVVVFQFQHIMVGLILPGIVILSCYCIIISKLSHSKGHQKRKALKTTVILILAFFACWLPYYIGISIDSFILLEIIKQGCEFENTVHKWISITEALAFFHCCLNPILYAFLGAKFKTSAQHALTSVSRGSSLKILSKGKRGGHSSVSTESESSSFHSS
